Laboratory results from PMC9989923, “A curcumin analogue GO‐Y030 depletes cancer stem cells by inhibiting the interaction between the HSP70/HSP40 complex and its substrates” (FEBS Open Bio, 2023).

Legend:
[1] = target: T1, recombinant human HSP70‐1A protein (human, UniProt P0DMV8 1-641); assay: ELISA; substrate-binding assay: CMLA immobilised at 500 ng per well; 50 ng per well HSP70-1A or dnaJ-B1 in 20 mM Tris-HCl pH 7.5, 20 mM NaCl, 10 mM MgCl2, 0.2% BSA, 60 min at 30 °C; detected with anti-HSP70 or anti-DNAJB1 pAb and alkaline phosphatase-labelled secondary antibody; with dimethylsulfoxide, GO-Y030 or PFT-μ; settings: both partners purified
T1 construct: recombinant human HSP70-1A (gene HSPA1A), bought from StressMarq Biosciences; No catalogue number printed; source: bought: StressMarq Biosciences
T1 sequence (P0DMV8 whole entry): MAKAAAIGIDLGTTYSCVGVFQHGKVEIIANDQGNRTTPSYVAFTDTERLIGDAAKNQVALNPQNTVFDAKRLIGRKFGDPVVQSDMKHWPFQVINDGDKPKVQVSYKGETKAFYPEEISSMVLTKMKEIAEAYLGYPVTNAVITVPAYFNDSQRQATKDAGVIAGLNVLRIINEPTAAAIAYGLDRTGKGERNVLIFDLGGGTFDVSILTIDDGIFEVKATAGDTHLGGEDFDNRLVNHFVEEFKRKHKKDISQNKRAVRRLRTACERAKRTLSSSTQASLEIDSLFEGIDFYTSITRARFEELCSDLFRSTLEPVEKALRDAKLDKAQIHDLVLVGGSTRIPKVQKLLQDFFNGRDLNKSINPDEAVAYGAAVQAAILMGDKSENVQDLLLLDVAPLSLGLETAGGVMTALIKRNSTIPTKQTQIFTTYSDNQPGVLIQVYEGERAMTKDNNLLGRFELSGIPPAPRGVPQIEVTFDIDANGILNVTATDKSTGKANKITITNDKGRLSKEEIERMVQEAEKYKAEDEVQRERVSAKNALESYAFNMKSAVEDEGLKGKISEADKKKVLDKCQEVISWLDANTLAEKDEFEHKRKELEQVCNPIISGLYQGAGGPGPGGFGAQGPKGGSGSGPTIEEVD

[2] = target: T2, recombinant human HSP40/Hdj1 (dnaJ‐B1) protein (human, UniProt P25685 1-340); assay: as above; settings: both partners purified
T2 construct: recombinant human HSP40/Hdj1 (dnaJ-B1, gene DNAJB1), bought from Enzo Life Sciences; No catalogue number printed; source: bought: Enzo Life Sciences
T2 sequence (P25685 whole entry): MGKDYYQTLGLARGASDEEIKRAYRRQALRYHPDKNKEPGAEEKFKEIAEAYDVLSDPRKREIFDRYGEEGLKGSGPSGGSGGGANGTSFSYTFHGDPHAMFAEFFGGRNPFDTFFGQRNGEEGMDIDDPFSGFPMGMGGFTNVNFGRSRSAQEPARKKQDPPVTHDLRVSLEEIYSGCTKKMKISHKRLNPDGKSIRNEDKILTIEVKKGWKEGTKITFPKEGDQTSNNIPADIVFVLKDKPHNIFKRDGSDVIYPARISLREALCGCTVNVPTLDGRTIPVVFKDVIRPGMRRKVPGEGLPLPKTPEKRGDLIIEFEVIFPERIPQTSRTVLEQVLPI

binding result [1]: binds | binding result [2]: binds
B1: carboxymethylated α‐lactalbumin (natural protein, bovine, UniProt P00711 20-142, looked up)
chain: EQLTKCEVFRELKDLKGYGGVSLPEWVCTTFHTSGYDTQAIVQNNDSTEYGLFQINNKIWCKDDQNPHSSNICNISCDKFLDDDLTDDIMCVKKILDKVGINYWLAHKALCSEKLDQWLCEKL
modifications: reduced with 20 mM dithiothreitol in 8 M urea and alkylated with 40 mM iodoacetamide (called carboxymethylated); permanently unfolded
notes: also called CMLA; carboxymethylated lactalbumin; source: bovine α-lactalbumin bought: Sigma-Aldrich; reduced in 8 M urea with dithiothreitol, alkylated with iodoacetamide, dialysed against PBS
